Data on six molecules can be found in paper PMC10441475, “Structure of METTL3-METTL14 with an m6A nucleotide reveals insights into m6A conversion and sensing”.

For data set [1], the target named is METTL3 WT;METTL14 R298P (Homo sapiens;Homo sapiens, UniProt Q86U44;Q9HCE5 1-580;1-456, |R298P). Description: SPR; two-state model; FP: 10 mM HEPES pH 7.5, 50 mM KCl, 5 nM RNA; SPR: 10 mM HEPES pH 7.5, 150 mM KCl, 0.05% P20, 25 C; 2-Ap: 50 mM Tris pH 8.0, 10 mM MgCl2, 0.5 uM RNA, read at 37. The conditions noted are these: protein: recombinant;recombinant, tags: His-tag removed by TEV;, copies: 1;1. For orientation: In SPR one partner is held on a chip, and binding of the other changes the refractive index at the surface.

For data set [2], the target named is METTL3 R471H;METTL14 WT (Homo sapiens;Homo sapiens, UniProt Q86U44;Q9HCE5 1-580;1-456, R471H|). Described as above. The following applies: protein: recombinant;recombinant, tags: His-tag removed by TEV;, copies: 1;1.
Data set [3] concerns the target T1, METTL3 WT;METTL14 WT (Homo sapiens;Homo sapiens, UniProt Q86U44;Q9HCE5 1-580;1-456, |). Description: SPR; 1:1 model; FP: 10 mM HEPES pH 7.5, 50 mM KCl, 5 nM RNA; SPR: 10 mM HEPES pH 7.5, 150 mM KCl, 0.05% P20, 25 C; 2-Ap: 50 mM Tris pH 8.0, 10 mM MgCl2, 0.5 uM RNA, read at 37. The following applies: protein: recombinant;recombinant, tags: His-tag removed by TEV;, copies: 1;1.

The target of data set [4] is T1, METTL3 WT;METTL14 WT. Description: fluorescence polarization; range given for A-RNA and m6A-RNA together; m6A-RNA said to bind more tightly; FP: 10 mM HEPES pH 7.5, 50 mM KCl, 5 nM RNA; SPR: 10 mM HEPES pH 7.5, 150 mM KCl, 0.05% P20, 25 C; 2-Ap: 50 mM Tris pH 8.0, 10 mM MgCl2, 0.5 uM RNA, read at 37. The following applies: protein: recombinant;recombinant; tags: His-tag removed by TEV;; copies: 1;1; label: 5' fluorescein; predicted bulged stem-loop.

Data set [5] deals with T1, METTL3 WT;METTL14 WT. Description: fluorescence polarization; range given for A-RNA and m6A-RNA together; FP: 10 mM HEPES pH 7.5, 50 mM KCl, 5 nM RNA; SPR: 10 mM HEPES pH 7.5, 150 mM KCl, 0.05% P20, 25 C; 2-Ap: 50 mM Tris pH 8.0, 10 mM MgCl2, 0.5 uM RNA, read at 37. The conditions noted are these: protein: recombinant;recombinant; tags: His-tag removed by TEV;; copies: 1;1; label: 5' fluorescein; predicted bulged stem-loop.

T1 sequence (Q86U44 whole entry, chain 1 of 2): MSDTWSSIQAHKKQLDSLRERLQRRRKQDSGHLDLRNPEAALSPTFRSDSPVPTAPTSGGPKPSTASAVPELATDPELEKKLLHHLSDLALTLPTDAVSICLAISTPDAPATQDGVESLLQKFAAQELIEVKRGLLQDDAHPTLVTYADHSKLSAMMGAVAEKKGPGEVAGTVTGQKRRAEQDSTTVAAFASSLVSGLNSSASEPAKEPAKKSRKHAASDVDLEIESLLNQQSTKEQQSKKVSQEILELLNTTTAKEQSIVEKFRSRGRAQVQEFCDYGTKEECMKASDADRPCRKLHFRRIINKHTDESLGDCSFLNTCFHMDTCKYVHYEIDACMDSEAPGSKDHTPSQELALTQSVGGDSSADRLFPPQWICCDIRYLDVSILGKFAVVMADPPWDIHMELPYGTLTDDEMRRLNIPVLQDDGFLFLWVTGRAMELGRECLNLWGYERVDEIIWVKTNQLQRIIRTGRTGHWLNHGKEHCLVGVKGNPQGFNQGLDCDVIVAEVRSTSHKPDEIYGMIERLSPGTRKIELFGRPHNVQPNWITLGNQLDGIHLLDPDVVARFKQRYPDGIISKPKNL
T1 sequence (Q9HCE5 whole entry, chain 2 of 2): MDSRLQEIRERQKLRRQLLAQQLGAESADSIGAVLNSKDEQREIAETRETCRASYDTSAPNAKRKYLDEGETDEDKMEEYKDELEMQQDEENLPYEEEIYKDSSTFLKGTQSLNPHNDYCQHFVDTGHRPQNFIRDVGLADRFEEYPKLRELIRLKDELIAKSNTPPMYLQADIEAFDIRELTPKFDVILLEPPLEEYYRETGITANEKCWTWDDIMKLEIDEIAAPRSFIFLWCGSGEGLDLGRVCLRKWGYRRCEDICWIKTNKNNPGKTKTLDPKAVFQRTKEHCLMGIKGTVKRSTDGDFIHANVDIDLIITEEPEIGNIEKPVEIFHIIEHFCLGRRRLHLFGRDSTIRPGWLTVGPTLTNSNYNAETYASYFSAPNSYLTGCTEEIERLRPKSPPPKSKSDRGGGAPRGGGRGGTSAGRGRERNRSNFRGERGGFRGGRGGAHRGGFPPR
METTL3 WT;METTL14 R298P, sequence (Q86U44 whole entry, chain 1 of 2): as the sequence (Q86U44 whole entry, chain 1 of 2) above
METTL3 WT;METTL14 R298P, sequence (Q9HCE5 whole entry R298P, chain 2 of 2): as the sequence (Q9HCE5 whole entry, chain 2 of 2) above, with R298P counted along it
METTL3 R471H;METTL14 WT, sequence (Q86U44 whole entry R471H, chain 1 of 2): as the sequence (Q86U44 whole entry, chain 1 of 2) above, with R471H counted along it
METTL3 R471H;METTL14 WT, sequence (Q9HCE5 whole entry, chain 2 of 2): as the sequence (Q9HCE5 whole entry, chain 2 of 2) above

As to GCCUAGUAGCAGAGAGGACUGCUCCUUGGU (structured_RNA, m6A at position 18) [rNEAT2-m6A (biotinyl)], the figures for the Kd in data set [1] (bulged stem-loop), in data set [2] (bulged stem-loop) and in data set [3] (bulged stem-loop) were 0.538 µM, 0.0628 µM and 0.337 µM, respectively.
On to GCCUAGUAGCAGAGAGGACUGCUCCUUGGU (structured_RNA, m6A at position 18) [Fl-NEAT2*-m6A (m6A-RNA)], for which the dissociation constant Kd in data set [4] was roughly 0.0134 µM.
For GCCUAGUAGCAGAGAGGACUGCUCCUUGGU (structured_RNA) [Fl-NEAT2* (A-RNA)], the Kd in data set [5] was roughly 0.0134 µM.
As to CUUCGGACUCUGCU (ssRNA, m6A at position 7) [r6T-m6A (biotinyl)], the equilibrium dissociation constant (Kd) in data set [1] (linear single strand) is 22.9 µM; in data set [2] (linear single strand) it was 0.171 µM; in data set [3] (linear single strand), 3.12 µM.
For GCCUAGUAGCAGAGAGGACUGCUCCUUGGU (structured_RNA) [rNEAT2 (biotinyl)], the dissociation constant Kd in data set [1] (bulged stem-loop) was determined as 0.356 µM; in data set [2] (bulged stem-loop) it was 0.0588 µM; in data set [3] (bulged stem-loop), 0.256 µM.
CUUCGGACUCUGCU (ssRNA) [r6T (biotinyl)]: the Kd turned out to be 2.16 µM in data set [1] (linear single strand), 0.108 µM in data set [2] (linear single strand) and 1.36 µM in data set [3] (linear single strand).

As usually defined, the Kd is the free concentration of one partner at which half of the binding sites on the other are occupied at equilibrium, for simple one-to-one binding.
